Measurements reported in US20030215451A1 (Genentech, published 2003).

How the values were obtained:
integrin αvβ3 = integrin αvβ3 (UniProt P06756 31-1048; P05106 27-788); test: cell-based or functional assay
[1] = target: T1, Tie1 receptor (full length receptor construct) (UniProt P35590 22-1138, limits assumed); test: co-immunoprecipitation from co-transfected 293 cells: anti-Tie1 IP, anti-gD immunoblot
T1 construct: whole, on cells; Full length receptor expressed in 293 cells and assayed from RIPA lysate, not on intact cells

[2] = target: T2, Tie2 receptor (full length receptor construct) (UniProt Q02763 23-1124, limits assumed); test: co-immunoprecipitation from co-transfected 293 cells: anti-Tie2 IP, anti-gD immunoblot
T2 construct: whole, on cells; Full length receptor expressed in 293 cells and assayed from RIPA lysate, not on intact cells
T2 sequence (Q02763 23-1124 limits assumed): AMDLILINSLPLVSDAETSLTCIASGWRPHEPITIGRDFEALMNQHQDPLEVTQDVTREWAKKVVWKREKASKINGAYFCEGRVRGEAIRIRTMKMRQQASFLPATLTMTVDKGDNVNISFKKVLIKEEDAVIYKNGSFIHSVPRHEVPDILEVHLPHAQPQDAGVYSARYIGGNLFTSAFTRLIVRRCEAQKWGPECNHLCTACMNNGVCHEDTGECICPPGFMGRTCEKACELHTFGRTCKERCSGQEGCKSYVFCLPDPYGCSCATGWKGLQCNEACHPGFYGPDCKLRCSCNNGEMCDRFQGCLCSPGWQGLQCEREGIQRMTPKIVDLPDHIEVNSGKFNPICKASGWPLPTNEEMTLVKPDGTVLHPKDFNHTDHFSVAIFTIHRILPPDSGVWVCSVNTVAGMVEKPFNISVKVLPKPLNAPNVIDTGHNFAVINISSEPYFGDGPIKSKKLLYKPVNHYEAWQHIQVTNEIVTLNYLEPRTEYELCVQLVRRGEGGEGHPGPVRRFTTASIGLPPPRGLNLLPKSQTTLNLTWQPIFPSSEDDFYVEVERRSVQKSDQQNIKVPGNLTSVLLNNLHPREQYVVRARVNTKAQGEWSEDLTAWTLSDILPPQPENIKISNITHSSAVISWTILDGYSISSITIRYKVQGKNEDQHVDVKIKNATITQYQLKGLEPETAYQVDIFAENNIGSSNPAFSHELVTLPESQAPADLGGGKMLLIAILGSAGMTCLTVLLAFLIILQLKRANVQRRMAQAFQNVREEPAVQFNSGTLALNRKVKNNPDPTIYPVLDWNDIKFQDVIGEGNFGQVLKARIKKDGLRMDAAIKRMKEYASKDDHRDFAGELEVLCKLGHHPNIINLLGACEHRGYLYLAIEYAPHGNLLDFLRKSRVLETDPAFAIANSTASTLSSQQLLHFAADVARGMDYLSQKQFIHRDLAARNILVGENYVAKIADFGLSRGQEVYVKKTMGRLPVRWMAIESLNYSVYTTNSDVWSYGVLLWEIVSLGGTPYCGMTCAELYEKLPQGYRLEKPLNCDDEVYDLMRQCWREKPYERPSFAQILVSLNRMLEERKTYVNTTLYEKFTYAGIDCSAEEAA

T1 sequence (P35590 22-1138 limits assumed): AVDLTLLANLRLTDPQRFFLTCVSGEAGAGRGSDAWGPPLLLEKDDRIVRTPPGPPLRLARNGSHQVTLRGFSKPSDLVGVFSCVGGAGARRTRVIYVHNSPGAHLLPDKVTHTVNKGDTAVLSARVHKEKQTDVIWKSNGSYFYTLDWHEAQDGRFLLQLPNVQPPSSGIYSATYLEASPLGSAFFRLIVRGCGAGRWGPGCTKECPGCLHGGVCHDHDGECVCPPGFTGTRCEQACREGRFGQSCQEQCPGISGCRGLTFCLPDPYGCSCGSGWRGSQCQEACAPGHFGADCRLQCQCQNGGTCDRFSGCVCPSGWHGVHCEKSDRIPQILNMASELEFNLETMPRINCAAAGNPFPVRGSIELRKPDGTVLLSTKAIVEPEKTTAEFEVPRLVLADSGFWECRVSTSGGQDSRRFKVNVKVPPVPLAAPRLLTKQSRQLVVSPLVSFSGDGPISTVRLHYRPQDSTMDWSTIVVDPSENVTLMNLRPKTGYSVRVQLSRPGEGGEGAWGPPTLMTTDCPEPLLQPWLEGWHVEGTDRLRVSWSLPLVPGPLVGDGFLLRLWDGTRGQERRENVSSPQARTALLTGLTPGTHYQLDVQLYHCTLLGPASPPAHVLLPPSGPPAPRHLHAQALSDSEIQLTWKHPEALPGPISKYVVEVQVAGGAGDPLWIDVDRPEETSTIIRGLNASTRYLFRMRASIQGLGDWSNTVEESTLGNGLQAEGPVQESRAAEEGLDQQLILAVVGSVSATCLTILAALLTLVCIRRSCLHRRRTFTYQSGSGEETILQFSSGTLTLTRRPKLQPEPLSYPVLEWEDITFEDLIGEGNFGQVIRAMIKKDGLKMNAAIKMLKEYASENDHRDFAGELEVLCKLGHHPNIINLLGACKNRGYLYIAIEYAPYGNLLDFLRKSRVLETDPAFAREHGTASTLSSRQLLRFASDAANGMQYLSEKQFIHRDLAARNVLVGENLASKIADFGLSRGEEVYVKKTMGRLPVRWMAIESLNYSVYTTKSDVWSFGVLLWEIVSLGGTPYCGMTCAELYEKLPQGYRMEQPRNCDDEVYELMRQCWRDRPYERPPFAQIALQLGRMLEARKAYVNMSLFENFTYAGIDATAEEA
integrin αvβ3, sequence (P06756 31-1048, chain 1 of 2): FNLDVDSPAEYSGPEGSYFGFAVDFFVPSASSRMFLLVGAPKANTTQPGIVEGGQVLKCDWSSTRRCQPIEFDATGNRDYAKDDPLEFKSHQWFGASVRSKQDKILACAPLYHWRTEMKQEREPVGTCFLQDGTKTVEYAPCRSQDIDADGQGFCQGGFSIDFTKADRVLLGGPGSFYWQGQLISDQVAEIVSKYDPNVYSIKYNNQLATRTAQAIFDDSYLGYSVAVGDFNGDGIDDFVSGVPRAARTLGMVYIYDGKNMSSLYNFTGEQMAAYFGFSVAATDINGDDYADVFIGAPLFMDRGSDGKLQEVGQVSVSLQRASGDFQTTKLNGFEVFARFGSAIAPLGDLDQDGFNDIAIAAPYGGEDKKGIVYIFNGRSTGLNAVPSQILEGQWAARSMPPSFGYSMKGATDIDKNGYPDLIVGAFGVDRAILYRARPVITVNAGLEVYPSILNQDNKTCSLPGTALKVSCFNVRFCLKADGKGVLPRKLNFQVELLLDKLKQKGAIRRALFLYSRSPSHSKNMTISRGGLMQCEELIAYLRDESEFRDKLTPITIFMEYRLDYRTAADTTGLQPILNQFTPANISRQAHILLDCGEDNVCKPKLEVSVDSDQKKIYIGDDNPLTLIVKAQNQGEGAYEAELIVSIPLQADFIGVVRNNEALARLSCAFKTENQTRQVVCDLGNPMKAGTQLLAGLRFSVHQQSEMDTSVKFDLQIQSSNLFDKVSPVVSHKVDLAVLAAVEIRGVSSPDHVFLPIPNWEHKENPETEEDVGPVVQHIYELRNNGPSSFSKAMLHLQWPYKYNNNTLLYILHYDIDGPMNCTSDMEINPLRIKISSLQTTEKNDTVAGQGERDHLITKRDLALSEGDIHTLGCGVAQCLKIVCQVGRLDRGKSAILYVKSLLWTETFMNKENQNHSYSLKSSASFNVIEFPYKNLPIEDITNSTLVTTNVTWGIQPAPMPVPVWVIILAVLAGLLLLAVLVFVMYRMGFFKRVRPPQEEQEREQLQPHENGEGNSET
integrin αvβ3, sequence (P05106 27-788, chain 2 of 2): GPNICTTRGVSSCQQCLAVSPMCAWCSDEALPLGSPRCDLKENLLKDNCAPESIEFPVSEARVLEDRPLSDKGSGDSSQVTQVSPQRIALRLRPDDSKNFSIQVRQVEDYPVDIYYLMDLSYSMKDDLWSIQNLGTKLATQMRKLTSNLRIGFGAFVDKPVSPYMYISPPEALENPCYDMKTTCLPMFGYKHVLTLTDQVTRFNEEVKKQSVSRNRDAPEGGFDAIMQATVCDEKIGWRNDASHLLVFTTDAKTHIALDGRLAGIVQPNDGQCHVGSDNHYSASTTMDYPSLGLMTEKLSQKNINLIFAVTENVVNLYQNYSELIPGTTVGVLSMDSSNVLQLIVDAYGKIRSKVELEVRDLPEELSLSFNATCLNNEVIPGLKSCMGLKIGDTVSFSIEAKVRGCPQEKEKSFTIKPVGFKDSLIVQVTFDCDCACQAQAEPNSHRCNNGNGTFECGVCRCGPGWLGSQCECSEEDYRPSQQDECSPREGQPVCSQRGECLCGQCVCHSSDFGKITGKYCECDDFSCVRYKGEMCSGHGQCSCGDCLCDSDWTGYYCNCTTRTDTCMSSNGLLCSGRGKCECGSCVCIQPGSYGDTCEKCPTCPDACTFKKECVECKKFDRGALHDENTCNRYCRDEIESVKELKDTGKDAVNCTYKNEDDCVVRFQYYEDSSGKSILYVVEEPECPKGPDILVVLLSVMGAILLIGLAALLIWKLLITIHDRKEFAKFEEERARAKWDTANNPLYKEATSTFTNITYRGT

B1: recombinant human Angptl3 tagged with an amino-terminal gD epitope (ligand, not shown: small tags and cut ends)
chain: SRIDQDNSSFDSLSPEPKSRFAMLDDVKILANGLLQLGHGLKDFVHKTKGQINDIFQKLNIFDQSFYDLSLQTSEIKEEEKELRRTTYKLQVKNEEVKNMSLELNSKLESLLEEKILLQQKVKYLEEQLTNLIQNQPETPEHPEVTSLKTFVEKQDNSIKDLLQTVEDQYKQLNQQHSQIKEIENQLRRTSIQEPTEISLSSKPRAPRTTPFLQLNEIRNVKHDGIPAECTTIYNRGEHTSGMYAIRPSNSQVFHVYCDVISGSPWTLIQHRIDGSQNFNETWENYKYGFGRLDGEFWLGLEKIYSIVKQSNYVLRIELEDWKDNKHYIEYSFYLGNHETNYTLHLVAITGNVPNAIPENKDLVFSTWDHKAKGHFNCPEGYSGGWWWHDECGENNLNGKYNKPRAKSKPERRRGLSWKSQNGRLYSIKSTKMLIHPTDSESFE
modifications: glycosylated (PNGase-F sensitive)
notes: Purified from baculovirus-infected insect cells for the adhesion and migration assays; Expressed in transiently transfected 293 cells for the co-immunoprecipitation; Both are treated here as one molecule; also called hAngptl3; gD-tagged Angptl3
Integrin αvβ3
  migration of HMVEC (cells/microscopic field): 2.5 fold
[1]
  binding result: no binding
[2]
  binding result: no binding
